Results: patent US20150252148A1

Tested on: Dynamic MAPTrix™ Laminin

type IV bacterial collagenase
enzymatic digestion monitored by SDS-PAGE (25:1 substrate:collagenase, 2 h, 37° C.): the apparent molecular weight of various fractions from disgested Dynamic MAPTrix™ Laminin on a SDS-PAGE gel was 29, 18, and 12 kDa
